Assays:
Experiment in all cases: affinity purification with mass spectrometry
[1] = target: Nic96 (Saccharomyces cerevisiae, UniProt P34077)
[2] = target: Nsp1 (Saccharomyces cerevisiae (strain ATCC …, UniProt P14907))
[3] = target: Nup49 (Saccharomyces cerevisiae (strain ATCC …, UniProt Q02199))
[4] = target: Nup57 (Saccharomyces cerevisiae (strain ATCC …, UniProt P48837))
[5] = target: Pom152 (Saccharomyces cerevisiae (strain ATCC …, UniProt P39685))
[6] = target: Nup192 (Saccharomyces cerevisiae (strain ATCC …, UniProt P47054))
[7] = target: Pom34-ZZ (Saccharomyces cerevisiae (strain ATCC …, UniProt Q12445))
Sequence of Pom34-ZZ (Saccharomyces cerevisiae (Q12445 whole entry): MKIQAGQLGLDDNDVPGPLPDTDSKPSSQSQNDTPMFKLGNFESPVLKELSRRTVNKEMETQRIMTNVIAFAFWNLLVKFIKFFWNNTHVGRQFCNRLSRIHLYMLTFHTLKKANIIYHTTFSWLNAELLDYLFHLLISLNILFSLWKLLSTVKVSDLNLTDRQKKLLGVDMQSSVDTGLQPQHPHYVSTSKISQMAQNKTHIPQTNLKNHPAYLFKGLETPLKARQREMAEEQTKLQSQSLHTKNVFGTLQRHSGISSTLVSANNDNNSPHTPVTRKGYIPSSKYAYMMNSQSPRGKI

Sequence of Nup57 (Saccharomyces cerevisiae (P48837 whole entry): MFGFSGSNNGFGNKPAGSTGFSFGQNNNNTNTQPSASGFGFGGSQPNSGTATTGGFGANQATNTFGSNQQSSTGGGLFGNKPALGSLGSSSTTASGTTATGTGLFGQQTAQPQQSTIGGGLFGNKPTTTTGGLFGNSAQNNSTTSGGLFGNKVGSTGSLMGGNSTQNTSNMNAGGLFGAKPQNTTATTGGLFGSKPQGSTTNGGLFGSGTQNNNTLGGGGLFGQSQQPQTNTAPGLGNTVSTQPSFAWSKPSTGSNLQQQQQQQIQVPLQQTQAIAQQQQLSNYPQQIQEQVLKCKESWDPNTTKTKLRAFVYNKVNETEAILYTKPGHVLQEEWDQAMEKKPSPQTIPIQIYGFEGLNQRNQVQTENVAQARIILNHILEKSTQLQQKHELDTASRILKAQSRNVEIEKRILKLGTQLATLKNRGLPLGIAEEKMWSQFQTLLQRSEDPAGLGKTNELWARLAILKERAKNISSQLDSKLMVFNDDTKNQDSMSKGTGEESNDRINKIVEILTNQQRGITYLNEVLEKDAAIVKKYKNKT
Sequence of Nic96 (P34077 whole entry): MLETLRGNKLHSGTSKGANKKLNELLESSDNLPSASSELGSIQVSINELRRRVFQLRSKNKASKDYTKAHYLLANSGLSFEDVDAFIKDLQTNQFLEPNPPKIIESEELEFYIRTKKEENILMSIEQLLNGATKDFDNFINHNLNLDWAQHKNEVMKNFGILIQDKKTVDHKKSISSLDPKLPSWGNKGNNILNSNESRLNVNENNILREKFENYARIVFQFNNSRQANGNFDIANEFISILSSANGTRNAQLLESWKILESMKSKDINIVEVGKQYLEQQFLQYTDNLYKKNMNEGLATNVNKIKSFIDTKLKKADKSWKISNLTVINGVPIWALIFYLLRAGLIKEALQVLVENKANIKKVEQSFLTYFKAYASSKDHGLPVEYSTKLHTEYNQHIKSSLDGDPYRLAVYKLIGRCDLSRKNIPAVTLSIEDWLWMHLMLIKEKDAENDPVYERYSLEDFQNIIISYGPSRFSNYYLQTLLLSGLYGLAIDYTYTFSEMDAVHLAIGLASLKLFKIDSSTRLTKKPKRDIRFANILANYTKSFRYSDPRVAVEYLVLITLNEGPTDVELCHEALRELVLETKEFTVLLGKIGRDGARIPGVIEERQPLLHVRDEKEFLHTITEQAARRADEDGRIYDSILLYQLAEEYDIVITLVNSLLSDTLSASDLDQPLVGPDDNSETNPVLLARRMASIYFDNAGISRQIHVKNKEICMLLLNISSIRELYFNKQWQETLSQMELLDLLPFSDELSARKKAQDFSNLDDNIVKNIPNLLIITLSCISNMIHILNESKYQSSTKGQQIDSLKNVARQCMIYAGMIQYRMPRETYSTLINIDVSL
Sequence of Nup192 (Saccharomyces cerevisiae (P47054 whole entry): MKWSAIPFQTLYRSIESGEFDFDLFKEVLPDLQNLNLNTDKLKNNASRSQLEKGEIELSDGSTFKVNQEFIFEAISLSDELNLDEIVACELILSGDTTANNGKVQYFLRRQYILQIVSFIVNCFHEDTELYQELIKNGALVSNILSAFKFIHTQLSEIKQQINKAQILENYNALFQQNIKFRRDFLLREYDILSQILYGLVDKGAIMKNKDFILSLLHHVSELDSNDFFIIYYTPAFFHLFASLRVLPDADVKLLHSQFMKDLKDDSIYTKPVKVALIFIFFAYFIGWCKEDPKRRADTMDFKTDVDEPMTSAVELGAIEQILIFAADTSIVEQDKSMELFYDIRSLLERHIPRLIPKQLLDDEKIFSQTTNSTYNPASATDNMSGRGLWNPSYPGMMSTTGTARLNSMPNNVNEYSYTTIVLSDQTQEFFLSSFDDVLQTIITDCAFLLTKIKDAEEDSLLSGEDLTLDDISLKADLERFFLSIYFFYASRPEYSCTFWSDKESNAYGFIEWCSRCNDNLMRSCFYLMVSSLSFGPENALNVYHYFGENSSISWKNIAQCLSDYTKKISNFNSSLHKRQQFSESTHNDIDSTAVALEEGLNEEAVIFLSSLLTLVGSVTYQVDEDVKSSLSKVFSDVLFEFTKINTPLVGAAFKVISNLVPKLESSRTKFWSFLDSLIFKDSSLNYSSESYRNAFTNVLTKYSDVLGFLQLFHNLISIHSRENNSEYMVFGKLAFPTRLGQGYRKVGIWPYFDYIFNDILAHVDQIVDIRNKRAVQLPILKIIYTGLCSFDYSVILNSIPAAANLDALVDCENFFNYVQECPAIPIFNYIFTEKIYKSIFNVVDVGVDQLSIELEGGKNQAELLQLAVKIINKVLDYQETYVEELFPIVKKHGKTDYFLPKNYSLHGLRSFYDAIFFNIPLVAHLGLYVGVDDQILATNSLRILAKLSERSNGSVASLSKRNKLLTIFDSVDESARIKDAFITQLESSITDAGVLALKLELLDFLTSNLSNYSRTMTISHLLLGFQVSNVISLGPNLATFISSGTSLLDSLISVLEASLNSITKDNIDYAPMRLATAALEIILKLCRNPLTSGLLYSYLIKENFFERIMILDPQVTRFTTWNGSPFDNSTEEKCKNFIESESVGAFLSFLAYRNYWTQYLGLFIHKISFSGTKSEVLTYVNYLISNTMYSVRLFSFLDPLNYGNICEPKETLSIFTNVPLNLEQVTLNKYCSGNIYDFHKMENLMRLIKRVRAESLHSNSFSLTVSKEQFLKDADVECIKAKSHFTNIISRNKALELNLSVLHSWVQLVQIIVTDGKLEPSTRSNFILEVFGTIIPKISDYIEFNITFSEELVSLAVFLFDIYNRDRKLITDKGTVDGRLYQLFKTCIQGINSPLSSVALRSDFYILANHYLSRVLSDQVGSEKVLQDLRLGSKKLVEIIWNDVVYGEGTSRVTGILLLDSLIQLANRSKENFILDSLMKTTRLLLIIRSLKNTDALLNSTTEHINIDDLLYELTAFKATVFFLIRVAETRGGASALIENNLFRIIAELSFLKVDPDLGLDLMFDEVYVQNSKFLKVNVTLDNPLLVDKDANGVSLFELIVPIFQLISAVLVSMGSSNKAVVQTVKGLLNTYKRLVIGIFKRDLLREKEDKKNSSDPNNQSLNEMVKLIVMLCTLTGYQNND
Sequence of Pom152 (Saccharomyces cerevisiae (P39685 whole entry): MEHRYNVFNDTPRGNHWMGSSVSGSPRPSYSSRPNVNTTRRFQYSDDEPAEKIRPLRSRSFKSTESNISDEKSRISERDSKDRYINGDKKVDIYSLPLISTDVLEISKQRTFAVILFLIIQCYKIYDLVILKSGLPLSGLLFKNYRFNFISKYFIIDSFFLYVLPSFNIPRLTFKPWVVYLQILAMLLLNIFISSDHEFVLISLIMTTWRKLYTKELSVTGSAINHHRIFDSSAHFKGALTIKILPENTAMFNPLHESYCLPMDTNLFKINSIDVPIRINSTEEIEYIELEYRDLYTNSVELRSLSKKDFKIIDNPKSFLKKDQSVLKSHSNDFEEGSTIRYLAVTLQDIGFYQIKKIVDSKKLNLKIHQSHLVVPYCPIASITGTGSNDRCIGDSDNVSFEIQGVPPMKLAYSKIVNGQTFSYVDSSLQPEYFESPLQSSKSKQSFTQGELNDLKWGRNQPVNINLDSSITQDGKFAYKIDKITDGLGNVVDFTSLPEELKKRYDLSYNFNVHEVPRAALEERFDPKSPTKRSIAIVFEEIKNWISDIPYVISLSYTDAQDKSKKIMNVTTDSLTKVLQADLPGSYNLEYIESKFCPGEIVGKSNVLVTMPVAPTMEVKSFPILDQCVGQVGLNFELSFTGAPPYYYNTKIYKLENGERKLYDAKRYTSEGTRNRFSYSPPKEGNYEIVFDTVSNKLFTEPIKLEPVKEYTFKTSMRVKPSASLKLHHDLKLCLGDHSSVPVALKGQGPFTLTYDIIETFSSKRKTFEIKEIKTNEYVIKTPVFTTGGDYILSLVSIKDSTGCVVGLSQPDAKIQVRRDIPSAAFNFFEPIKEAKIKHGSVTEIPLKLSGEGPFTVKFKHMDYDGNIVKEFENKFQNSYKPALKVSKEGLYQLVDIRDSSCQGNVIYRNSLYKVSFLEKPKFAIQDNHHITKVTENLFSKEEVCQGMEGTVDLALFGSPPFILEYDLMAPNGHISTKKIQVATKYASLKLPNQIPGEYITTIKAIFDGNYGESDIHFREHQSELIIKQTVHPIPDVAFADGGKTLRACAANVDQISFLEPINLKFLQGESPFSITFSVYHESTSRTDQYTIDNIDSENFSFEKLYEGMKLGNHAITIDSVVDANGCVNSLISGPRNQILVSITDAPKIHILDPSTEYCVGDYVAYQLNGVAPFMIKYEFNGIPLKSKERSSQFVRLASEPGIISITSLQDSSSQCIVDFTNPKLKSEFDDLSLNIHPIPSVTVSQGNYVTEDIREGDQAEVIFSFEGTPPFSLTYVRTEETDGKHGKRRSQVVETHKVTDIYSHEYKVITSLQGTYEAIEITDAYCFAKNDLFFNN

binding result [1] | binding result [2] | binding result [3] | binding result [4] | binding result [5] | binding result [6] | binding result [7] | Binder
binds | binds | binds | binds | binds | binds |  | VHH[Nic96]-ZZ (VHH) VHH: QVQLVETGGGLVQAGGSLRLSCATSGFNFRLRTMGWYRQAPGKERELVASITSGGSTDYADSVKGRFTISRDNAKNTISLEMNSLKPDDTAVYYCNIWAPTTAAITNWGQGTQVTVSS
 |  |  |  |  |  | binds | VHH[Nic96] (as expressed in the Pom34-ZZ strain) (VHH) VHH: QVQLVETGGGLVQAGGSLRLSCATSGFNFRLRTMGWYRQAPGKERELVASITSGGSTDYADSVKGRFTISRDNAKNTISLEMNSLKPDDTAVYYCNIWAPTTAAITNWGQGTQVTVSS

— doi:10.1101/2025.07.30.667432 (bioRxiv, 2025)
